What was measured:
Assay in all cases: single-molecule FRET
Conditions in all cases: 5' m7GpppAm cap named for viral RNA; 3' poly(A) of unstated length
[1] = molecular target: Cy5-eIF4E;eIF4G(557-1137);eIF4A (Homo sapiens;Homo sapiens;Homo sapiens) (UniProt Q04637)
[2] = molecular target: Cy5-eIF4E(S209D);eIF4G(557-1137);eIF4A (Homo sapiens;Homo sapiens;Homo sapiens) (UniProt Q04637)
[3] = test system: Cy5-eIF4E(S209D) (Homo sapiens)
[4] = test system: Cy5-eIF4E (Homo sapiens)

Question: How did the Kd [1] turn out when capped polyadenylated SARS-CoV-2 5' UTR was run?
Answer: The Kd was 127 nM.

Question: And the Kd [2]?
Answer: The Kd was 78 nM.

Question: And the Kd [3]?
Answer: Its Kd is 62 nM.

Question: What about the Kd [4] of the same substance?
Answer: The Kd was 74 nM.

From publication doi:10.1101/2021.05.26.445185
